Reference: patent publication US20230242646A1 (JJP BIOLOGICS SP Z O O, published 2023)

Columns and labels:
[1] = target: T1, membrane-bound full-length human CD89 on HEK293F cells (human, UniProt P24071 22-287); assay: FACS HEK293F-huCD89
T1 construct: 2 or transient transfectants; also called membrane human CD89; human FcaRI
Procedure: After extensive washing in PBS/BSA/NaN₃, cells were subsequently incubated with 1:200 diluted PE-conjugated goat anti-human IgG Fcy-specific antibodies (Jackson ImmunoResearch) for 30 minutes at 4° C. After extensive washing in PBS/BSA/NaN₃, cells were fixed in 2% formaldehyde in PBS/BSA/NaN₃ for 30 minutes at 4° C.

[2] = target: T1, membrane-bound full-length human CD89 …; assay: FACS HEK293F-huCD89, 10 ug/mL; competitor PE-A3
Procedure: Then, 10 µL/tube (i.e., 0.1 × 10⁶ cells) of these cells were incubated with or without 100 µL purified mouse anti-human CD89 antibody at 10 µg/mL (in PBS/BSA/NaN₃) for 30 minutes at 4° C. […] After extensive washing in PBS/BSA/NaN₃, cells were fixed in 2% formaldehyde in PBS/BSA/NaN₃ for 30 minutes at 4° C.

[3] = target: T2, chimeric human/cynomolgus monkey CD89-hotspots on HEK293F cells (human/cynomolgus chimera, UniProt P24071 22-287); assay: FACS, transiently transfected HEK293F
T2 construct: also called dThr58, Gln59; dArg73, Arg74, Lys76
T2 chain: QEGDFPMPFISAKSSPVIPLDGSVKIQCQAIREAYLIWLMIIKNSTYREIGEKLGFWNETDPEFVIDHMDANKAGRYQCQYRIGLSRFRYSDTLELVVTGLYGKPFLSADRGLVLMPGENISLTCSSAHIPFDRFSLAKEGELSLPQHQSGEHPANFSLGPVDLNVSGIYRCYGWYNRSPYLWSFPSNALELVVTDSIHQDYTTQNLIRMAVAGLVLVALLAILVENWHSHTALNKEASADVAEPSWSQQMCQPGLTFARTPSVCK
Procedure: (§1) To this end, transient transfected HEK293F cells were put at 10 × 10⁶ cells/mL in ice-chilled phosphate-buffered saline containing 0.1% BSA (Sigma)/0.05% NaN₃ (PBS/BSA/NaN₃) supplemented with 50 µg/mL human IgGs (blocking FcY receptors; Sigma) for 10 minutes at 4° C. Then, 10 µL/tube (i.e., 0.1 × 10⁶ cells) of these cells were incubated with or without 100 µL purified mouse anti-human CD89 antibody at 10 µg/mL (in PBS/BSA/NaN₃) for 30 minutes at 4° C. […] After extensive washing in PBS/BSA/NaN₃, cells were subsequently incubated with 1:200 diluted PE-conjugated goat anti-mouse IgG Fcy-specific antibodies (Jackson ImmunoResearch) for 30 minutes at 4° C. After extensive washing in PBS/BSA/NaN₃, cells were fixed in 2% formaldehyde in PBS/BSA/NaN₃ for 30 minutes at 4° C.

[4] = target: T3, chimeric human/cynomolgus monkey CD89-II on HEK293F cells (human/cynomolgus chimera, UniProt P24071 22-287); assay: FACS, 10 µg/mL, transiently transfected HEK293F
T3 construct: also called dIle47 - Ile71 human EC1-CD89; II (47-71)
T3 chain: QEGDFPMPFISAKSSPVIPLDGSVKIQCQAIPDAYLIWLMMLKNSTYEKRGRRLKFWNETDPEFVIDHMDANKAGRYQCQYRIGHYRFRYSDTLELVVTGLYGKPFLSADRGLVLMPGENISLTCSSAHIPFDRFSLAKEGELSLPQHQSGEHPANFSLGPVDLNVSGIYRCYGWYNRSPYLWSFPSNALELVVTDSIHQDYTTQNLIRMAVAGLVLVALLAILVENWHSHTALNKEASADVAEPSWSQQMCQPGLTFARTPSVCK
Procedure: as §1

[5] = target: T4, chimeric human/cynomolgus monkey CD89-IV on HEK293F cells (human/cynomolgus chimera, UniProt P24071 22-287); assay: FACS, 10 µg/mL, transiently transfected HEK293F
T4 construct: also called dArg97 - Gly121 human EC1-CD89
T4 chain: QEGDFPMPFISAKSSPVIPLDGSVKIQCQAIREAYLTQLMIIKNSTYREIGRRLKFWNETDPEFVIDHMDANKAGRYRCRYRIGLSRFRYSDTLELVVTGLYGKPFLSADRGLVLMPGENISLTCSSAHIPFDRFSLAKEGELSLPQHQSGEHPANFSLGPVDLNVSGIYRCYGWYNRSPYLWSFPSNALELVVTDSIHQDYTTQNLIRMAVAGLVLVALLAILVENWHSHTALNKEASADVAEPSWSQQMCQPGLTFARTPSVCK
Procedure: as §1

EC50 [1]: 0.637 µg/mL
% blocking of PE-A3 binding [2]: < 25%
binding result [3]: no binding (tested: 10 µg/mL)
binding result [4]: binds
binding result [5]: binds
B1: CD89/IgA blocking mouse anti-human CD89-specific antibody 10E7 (antibody, V domains shown)
VH: EVQLVESGGGLVQPGGSLKLSCAASGLTFSSYGMSWVRQTPDKRLELVATINGNGDITYYPDSVKGRFTISRDNAKNTLYLQMSSLKSEDTAMYYCARDYDYDYAMDYWGQGTSVTVSS
VL: DIQMTQSTSSLSASLGDSVTISCRASQDIINYLNWYQQKPDGTVKLLIYYTSRLHSGVPSRFSGSGSGTEYSLTVSNLEKEDIATYFCQQGKTLPYTFGGGTKLEIK
notes: biotinylated in the Octet assay; also called mouse 10E7
